Reference: patent US20110098217A1 (INDIANA UNIVERSITY RESEARCH AND TECHNOLOGY, published 2011)
Read-outs that look alike come from different tables or passages of the source. Bridge positions count the residues as written; N and C are the ends. Square brackets hold non-standard residues; d marks the D form. Ends that are not written are not given here. * marks the point of attachment. COCH2CH2S‑Chol = CC(C)CCC[C@@H](C)[C@H]1CC[C@H]2[C@@H]3CC=C4C[C@@H](SCCC(=O)*)CC[C@]4(C)[C@H]3CC[C@]12C; Abu(4-SO3H) = N[C@@H](CCS(=O)(=O)O)C(=O)O; PhLac = O=C(O)[C@@H](O)Cc1ccccc1

What was measured:
[1] = target: human GLP-1 receptor (human) (UniProt P43220); experiment: cell-based or functional assay
[2] = target: human glucagon receptor (human) (UniProt P47871); experiment: cell-based or functional assay
[3] = target: T1, human glucagon receptor (human, UniProt P47871 26-477); experiment: cell-based or functional assay
[4] = target: human glucagon receptor (human) (UniProt P47871); experiment: cell-based or functional assay; remark: listed apart in the source
[5] = target: human glucagon receptor (human) (UniProt P47871); experiment: cell-based or functional assay; remark: listed apart in the source
[6] = target: human GLP-1 receptor (human) (UniProt P43220); experiment: cell-based or functional assay; remark: listed apart in the source
[7] = target: T1, human glucagon receptor; experiment: cell-based or functional assay; remark: listed apart in the source
[8] = target: T1, human glucagon receptor; experiment: cell-based or functional assay; remark: listed apart in the source
[9] = target: T1, human glucagon receptor; experiment: SPA competition vs 125I-glucagon, receptor membranes
[10] = target: T1, human glucagon receptor; experiment: cell-based or functional assay; remark: listed apart in the source
[11] = target: T2, human GLP-1 receptor (human, UniProt P43220 24-463); experiment: cell-based or functional assay
[12] = target: T1, human glucagon receptor; experiment: cell-based or functional assay; remark: listed apart in the source
[13] = target: T2, human GLP-1 receptor; experiment: cell-based or functional assay; remark: listed apart in the source
[14] = target: T1, human glucagon receptor; experiment: cell-based or functional assay; remark: listed apart in the source
[15] = target: T2, human GLP-1 receptor; experiment: cell-based or functional assay; remark: listed apart in the source
[16] = target: T1, human glucagon receptor; experiment: cell-based or functional assay; remark: listed apart in the source
[17] = target: T2, human GLP-1 receptor; experiment: cell-based or functional assay; remark: listed apart in the source
[18] = target: T1, human glucagon receptor; experiment: cell-based or functional assay; remark: listed apart in the source
[19] = target: T2, human GLP-1 receptor; experiment: cell-based or functional assay; remark: listed apart in the source
[20] = target: T1, human glucagon receptor; experiment: cell-based or functional assay; remark: listed apart in the source
[21] = target: T2, human GLP-1 receptor; experiment: cell-based or functional assay; remark: listed apart in the source
[22] = target: T1, human glucagon receptor; experiment: cell-based or functional assay; remark: listed apart in the source
[23] = target: T1, human glucagon receptor; experiment: SPA competition vs 125I-glucagon, receptor membranes; remark: listed apart in the source
[24] = target: T1, human glucagon receptor; experiment: cell-based or functional assay; remark: listed apart in the source
[25] = target: T1, human glucagon receptor; experiment: SPA competition vs 125I-glucagon, receptor membranes; remark: listed apart in the source

Sequence of human glucagon receptor (human) (P47871 26-477): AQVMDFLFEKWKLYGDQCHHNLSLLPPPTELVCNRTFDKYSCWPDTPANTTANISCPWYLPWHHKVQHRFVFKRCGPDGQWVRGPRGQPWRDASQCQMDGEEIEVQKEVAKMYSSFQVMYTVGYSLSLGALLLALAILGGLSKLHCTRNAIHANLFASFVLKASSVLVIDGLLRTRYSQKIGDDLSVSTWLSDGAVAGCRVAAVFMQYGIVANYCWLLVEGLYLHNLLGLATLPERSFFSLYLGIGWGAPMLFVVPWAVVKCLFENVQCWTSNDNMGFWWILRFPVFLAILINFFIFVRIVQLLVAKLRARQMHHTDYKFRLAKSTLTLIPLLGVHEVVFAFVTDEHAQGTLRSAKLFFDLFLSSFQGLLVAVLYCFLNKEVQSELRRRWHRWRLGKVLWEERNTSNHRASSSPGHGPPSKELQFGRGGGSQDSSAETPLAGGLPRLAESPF
T1 sequence (P47871 26-477): as above
Sequence of human GLP-1 receptor (human) (P43220 24-463): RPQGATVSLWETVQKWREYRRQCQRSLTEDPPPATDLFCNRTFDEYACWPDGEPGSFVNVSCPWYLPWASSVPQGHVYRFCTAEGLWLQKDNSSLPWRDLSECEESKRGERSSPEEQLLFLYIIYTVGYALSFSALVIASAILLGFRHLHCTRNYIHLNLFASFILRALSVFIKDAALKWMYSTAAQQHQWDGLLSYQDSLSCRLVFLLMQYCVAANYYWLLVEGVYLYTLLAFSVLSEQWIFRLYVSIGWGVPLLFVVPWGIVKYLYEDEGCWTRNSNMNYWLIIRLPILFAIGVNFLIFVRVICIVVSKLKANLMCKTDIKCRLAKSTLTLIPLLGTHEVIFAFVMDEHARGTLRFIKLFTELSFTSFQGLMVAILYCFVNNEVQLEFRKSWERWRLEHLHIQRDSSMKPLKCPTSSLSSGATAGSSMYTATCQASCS

## [E9, E16K20(lactam)]G(6-39) (peptide)
[1]
  GLP-1 EC50: 36 nM
  GLP-1 agonism EC50: 36.4 nM
[2]
  Glu IC50: 42 nM
  Glucagon IC50: 42 nM
  Glucagon antagonism IC50 (inhibit 0.2-0.8 nM glucagon): 42 nM

## [d-Cys^5(20kDaPEG), E^9]Glucagon(aa5-29)-NH2 (peptide)
[3]
  IC50 (cAMP, inhibit 0.2 mM Glucagon): 14800 nM

## [E9, E16, K20] G(6-39) (peptide)
[1]
  GLP-1 agonism EC50: 1040 nM

## FTSEYSKYLDERRAQDFVQWLMNTGPSSGAPPPS (C-terminal amide) [[E9, E16]G(6-39)]
[4]
  Glu IC50: 762 nM
  Glucagon antagonism IC50 (inhibit 0.2-0.8 nM glucagon): 762 nM
[5]
  Glucagon IC50: 762 nM

## FTSEYSKYLDERRAQDFVQWLMNTGPSSGAPPPS (lactam bridge Lys12-Glu16 (native glucagon numbering); C-terminal amide) [E9, K12E16(lactam) glucagon(6-39)]
[6]
  GLP-1 EC50: 63 nM
[4]
  Glu IC50: 2010 nM
[5]
  Glucagon IC50: 2010 nM

B1: [PLA^6, D^9, D^28] Glucagon(aa6-29)-NH2 (peptide)
peptide: FTSDYSKYLDSRRAQDFVQWLMDT
modifications: PLA at position 6; C-terminal amide
notes: also called [PLA6, D9, D28]Glucagon(6-29)
[7]
  IC50 (cAMP, inhibit 0.1 nM Glucagon): 1.32 nM
[8]
  Glucagon antagonism IC50 (inhibit 0.5nM G): 9.03 nM
[9]
  IC50: 9 nM

B2: [PLA6, K12E16(lactam), D28]G(6-29) (peptide)
peptide: [PhLac]TSDYSKYLDERRAQDFVQWLMDT-NH2
modifications: lactam 7-11; N-terminus assumed
SMILES: CSCC[C@H](NC(=O)[C@H](CC(C)C)NC(=O)[C@H](Cc1c[nH]c2ccccc12)NC(=O)[C@H](CCC(N)=O)NC(=O)[C@@H](NC(=O)[C@H](Cc1ccccc1)NC(=O)[C@H](CC(=O)O)NC(=O)[C@H](CCC(N)=O)NC(=O)[C@H](C)NC(=O)[C@H](CCCNC(=N)N)NC(=O)[C@H](CCCNC(=N)N)NC(=O)[C@@H]1CCC(=O)NCCCC[C@H](NC(=O)[C@H](CO)NC(=O)[C@H](Cc2ccc(O)cc2)NC(=O)[C@H](CC(=O)O)NC(=O)[C@H](CO)NC(=O)[C@@H](NC(=O)[C@@H](O)Cc2ccccc2)[C@@H](C)O)C(=O)N[C@@H](Cc2ccc(O)cc2)C(=O)N[C@@H](CC(C)C)C(=O)N[C@@H](CC(=O)O)C(=O)N1)C(C)C)C(=O)N[C@@H](CC(=O)O)C(=O)N[C@H](C(N)=O)[C@@H](C)O
[10]
  Glucagon IC50: 63 nM
[11]
  GLP-1 EC50: 177 nM
[12]
  Glucagon IC50: 13 nM
[13]
  GLP-1 EC50: 21 nM
[14]
  Glucagon antagonism IC50 (inhibit 0.2-0.8 nM glucagon): 58.3 nM
[15]
  GLP-1 agonism EC50: 38.5 nM
[16]
  Glucagon antagonism IC50 (inhibit 0.2-0.8 nM glucagon): 58.3 nM
[17]
  GLP-1 agonism EC50: 38.5 nM
[18]
  Glucagon antagonism IC50 (inhibit 0.2-0.8 nM glucagon): 58.3 nM
[19]
  GLP-1 agonism EC50: 38.5 nM

B3: K10-chol G(6-29) (peptide)
peptide: [PhLac]TSDK(COCH2CH2S‑Chol)SKYLDERRAKDFVQWLMDT-NH2
modifications: lactam 11-15; N-terminus assumed
SMILES: CSCC[C@H](NC(=O)[C@H](CC(C)C)NC(=O)[C@H](Cc1c[nH]c2ccccc12)NC(=O)[C@H](CCC(N)=O)NC(=O)[C@@H](NC(=O)[C@H](Cc1ccccc1)NC(=O)[C@H](CC(=O)O)NC(=O)[C@@H]1CCCCNC(=O)CC[C@H](NC(=O)[C@H](CC(=O)O)NC(=O)[C@H](CC(C)C)NC(=O)[C@H](Cc2ccc(O)cc2)NC(=O)[C@H](CCCCN)NC(=O)[C@H](CO)NC(=O)[C@H](CCCCNC(=O)CCS[C@H]2CC[C@@]3(C)C(=CC[C@H]4[C@@H]5CC[C@H]([C@H](C)CCCC(C)C)[C@@]5(C)CC[C@@H]43)C2)NC(=O)[C@H](CC(=O)O)NC(=O)[C@H](CO)NC(=O)[C@@H](NC(=O)[C@@H](O)Cc2ccccc2)[C@@H](C)O)C(=O)N[C@@H](CCCNC(=N)N)C(=O)N[C@@H](CCCNC(=N)N)C(=O)N[C@@H](C)C(=O)N1)C(C)C)C(=O)N[C@@H](CC(=O)O)C(=O)N[C@H](C(N)=O)[C@@H](C)O
[20]
  Glucagon antagonism IC50 (inhibit 0.4 nM glucagon): 271 nM
[21]
  GLP-1 agonism EC50: 35.2 nM

B4: K30-chol G(6-30) (peptide)
peptide: [PhLac]TSDYSKYLDERRAKDFVQWLMDTK(COCH2CH2S‑Chol)-NH2
modifications: lactam 11-15; N-terminus assumed
SMILES: CSCC[C@H](NC(=O)[C@H](CC(C)C)NC(=O)[C@H](Cc1c[nH]c2ccccc12)NC(=O)[C@H](CCC(N)=O)NC(=O)[C@@H](NC(=O)[C@H](Cc1ccccc1)NC(=O)[C@H](CC(=O)O)NC(=O)[C@@H]1CCCCNC(=O)CC[C@H](NC(=O)[C@H](CC(=O)O)NC(=O)[C@H](CC(C)C)NC(=O)[C@H](Cc2ccc(O)cc2)NC(=O)[C@H](CCCCN)NC(=O)[C@H](CO)NC(=O)[C@H](Cc2ccc(O)cc2)NC(=O)[C@H](CC(=O)O)NC(=O)[C@H](CO)NC(=O)[C@@H](NC(=O)[C@@H](O)Cc2ccccc2)[C@@H](C)O)C(=O)N[C@@H](CCCNC(=N)N)C(=O)N[C@@H](CCCNC(=N)N)C(=O)N[C@@H](C)C(=O)N1)C(C)C)C(=O)N[C@@H](CC(=O)O)C(=O)N[C@H](C(=O)N[C@@H](CCCCNC(=O)CCS[C@H]1CC[C@@]2(C)C(=CC[C@H]3[C@@H]4CC[C@H]([C@H](C)CCCC(C)C)[C@@]4(C)CC[C@@H]32)C1)C(N)=O)[C@@H](C)O
[20]
  Glucagon antagonism IC50 (inhibit 0.4 nM glucagon): 575 nM
[21]
  GLP-1 agonism EC50: 14.4 nM

## SQGTFTS[Abu(4-SO3H)]YSKYLDSRRAQDFVQWLMNT-NH2 [[hCys^9(SO3H)]Glucagon(aa2-29)-NH2]
[22]
  cAMP IC50: 147 nM
[23]
  IC50: 13.2 nM

B5: [hCys^9(SO3H)]Glucagon(aa4-29)-NH2 (peptide)
peptide: GTFTS[Abu(4-SO3H)]YSKYLDSRRAQDFVQWLMNT-NH2
modifications: N-terminus assumed
SMILES: CSCC[C@H](NC(=O)[C@H](CC(C)C)NC(=O)[C@H](Cc1c[nH]c2ccccc12)NC(=O)[C@H](CCC(N)=O)NC(=O)[C@@H](NC(=O)[C@H](Cc1ccccc1)NC(=O)[C@H](CC(=O)O)NC(=O)[C@H](CCC(N)=O)NC(=O)[C@H](C)NC(=O)[C@H](CCCNC(=N)N)NC(=O)[C@H](CCCNC(=N)N)NC(=O)[C@H](CO)NC(=O)[C@H](CC(=O)O)NC(=O)[C@H](CC(C)C)NC(=O)[C@H](Cc1ccc(O)cc1)NC(=O)[C@H](CCCCN)NC(=O)[C@H](CO)NC(=O)[C@H](Cc1ccc(O)cc1)NC(=O)[C@H](CCS(=O)(=O)O)NC(=O)[C@H](CO)NC(=O)[C@@H](NC(=O)[C@H](Cc1ccccc1)NC(=O)[C@@H](NC(=O)CN)[C@@H](C)O)[C@@H](C)O)C(C)C)C(=O)N[C@@H](CC(N)=O)C(=O)N[C@H](C(N)=O)[C@@H](C)O
[22]
  cAMP IC50: 68.4 nM
  cAMP pA2: 7.22
[23]
  IC50: 41.5 nM

B6: [hCys^9(SO3H)]Glucagon(aa5-29)-NH2 (peptide)
peptide: TFTS[Abu(4-SO3H)]YSKYLDSRRAQDFVQWLMNT-NH2
modifications: N-terminus assumed
SMILES: CSCC[C@H](NC(=O)[C@H](CC(C)C)NC(=O)[C@H](Cc1c[nH]c2ccccc12)NC(=O)[C@H](CCC(N)=O)NC(=O)[C@@H](NC(=O)[C@H](Cc1ccccc1)NC(=O)[C@H](CC(=O)O)NC(=O)[C@H](CCC(N)=O)NC(=O)[C@H](C)NC(=O)[C@H](CCCNC(=N)N)NC(=O)[C@H](CCCNC(=N)N)NC(=O)[C@H](CO)NC(=O)[C@H](CC(=O)O)NC(=O)[C@H](CC(C)C)NC(=O)[C@H](Cc1ccc(O)cc1)NC(=O)[C@H](CCCCN)NC(=O)[C@H](CO)NC(=O)[C@H](Cc1ccc(O)cc1)NC(=O)[C@H](CCS(=O)(=O)O)NC(=O)[C@H](CO)NC(=O)[C@@H](NC(=O)[C@H](Cc1ccccc1)NC(=O)[C@@H](N)[C@@H](C)O)[C@@H](C)O)C(C)C)C(=O)N[C@@H](CC(N)=O)C(=O)N[C@H](C(N)=O)[C@@H](C)O
[22]
  cAMP IC50: 98.3 nM
  cAMP pA2: 6.77
[23]
  IC50: 33.9 nM

B7: [hCys^9(SO3H)]Glucagon(aa6-29)-NH2 (peptide)
peptide: FTS[Abu(4-SO3H)]YSKYLDSRRAQDFVQWLMNT-NH2
notes: also called [hCys(SO3)9]Glucagon(aa6-29)-NH2
[22]
  cAMP IC50: 133 nM
  cAMP pA2: 7.16
[24]
  cAMP IC50: 133 nM
  cAMP pA2: 7.16
[23]
  IC50: 59.1 nM
[25]
  IC50: 59.1 nM
